According to article PMC9061262, “Structural basis of the strict specificity of a bacterial GH31 α-1,3-glucosidase for nigerooligosaccharides” (The Journal of Biological Chemistry, 2022):

Columns and labels:
[1] = biological target: T1, LlGH31_u1 (Lactococcus cremoris, UniProt A2RM80); experiment: X-ray crystal structure of complex (soaked); format: binding; settings: 100 mM glucose soak, 45 min; subsite −1; both α- and β-anomers modelled
T1 construct: gene xylS; full length (no signal peptide), N-terminal His tag, pET28a, E. coli BL21(DE3); Tyr99 of the adjacent protomer reaches the active site
T1 sequence (A2RM80 1-739): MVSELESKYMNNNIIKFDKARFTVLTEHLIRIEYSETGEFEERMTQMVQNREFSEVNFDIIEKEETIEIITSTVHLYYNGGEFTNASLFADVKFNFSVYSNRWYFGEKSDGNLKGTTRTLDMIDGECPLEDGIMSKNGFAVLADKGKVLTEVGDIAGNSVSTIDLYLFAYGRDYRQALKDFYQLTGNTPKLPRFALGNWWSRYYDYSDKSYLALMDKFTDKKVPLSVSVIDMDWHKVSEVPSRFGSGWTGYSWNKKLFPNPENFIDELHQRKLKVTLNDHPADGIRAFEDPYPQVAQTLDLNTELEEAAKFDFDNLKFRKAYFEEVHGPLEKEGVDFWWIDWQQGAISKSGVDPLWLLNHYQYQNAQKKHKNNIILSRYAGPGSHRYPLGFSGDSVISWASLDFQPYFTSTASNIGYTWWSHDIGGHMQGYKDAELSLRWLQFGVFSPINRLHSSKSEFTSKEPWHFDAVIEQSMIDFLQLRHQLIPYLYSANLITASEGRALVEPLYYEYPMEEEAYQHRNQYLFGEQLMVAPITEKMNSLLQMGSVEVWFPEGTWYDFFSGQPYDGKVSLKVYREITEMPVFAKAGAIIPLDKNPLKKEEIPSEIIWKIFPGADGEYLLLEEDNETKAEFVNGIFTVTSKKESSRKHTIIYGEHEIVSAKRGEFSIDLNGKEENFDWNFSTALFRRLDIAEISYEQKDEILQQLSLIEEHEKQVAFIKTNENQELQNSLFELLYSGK

[2] = biological target: GH31_u1 protein from Lactococcus lactis subsp. cremoris MG1363 (LlGH31_u1), wild type (Lactococcus lactis subsp. cremoris MG1363); experiment: crystal structure; hanging-drop vapor diffusion at 20 °C, PEG 3350, sodium citrate pH 7.0; crystal form 1 (P2_(1), six molecules in the asymmetric unit) and crystal form 2 (P6_(3)22, one molecule, hexamer by symmetry); unliganded, glucose-soaked or cocrystallised with 10 mM ligands
[3] = biological target: GH31_u1 protein from Lactococcus lactis subsp. cremoris MG1363 (LlGH31_u1), wild type (Lactococcus lactis subsp. cremoris MG1363); experiment: cryo-EM structure; single-particle analysis; 1.13 μM (as a hexamer) in 20 mM sodium phosphate buffer (pH 7.0), 300 mM NaCl
[4] = biological target: GH31_u1 protein from Lactococcus lactis subsp. cremoris MG1363 (LlGH31_u1), wild type (Lactococcus lactis subsp. cremoris MG1363); experiment: SEC; gel filtration on HiLoad 16/60 Superdex 200 prep grade for molecular weight determination; 20 mM sodium phosphate buffer (pH 7.0), 300 mM NaCl
[5] = test system: O=[N+]([O-])c1ccc(O[C@H]2O[C@H](CO)[C@@H](O)[C@H](O)[C@H]2O)cc1; experiment: purified protein; settings: 50 mM sodium phosphate pH 7.0, 50 mM NaCl
[6] = substrate: O=[N+]([O-])c1ccc(O[C@H]2O[C@H](CO)[C@@H](O)[C@H](O)[C@H]2O)cc1; experiment: purified protein; settings: 50 mM sodium phosphate pH 7.0, 50 mM NaCl; remark: listed apart in the source

OC[C@H]1OC(O)[C@H](O)[C@@H](O)[C@@H]1O (some centres unmarked) [glucose]
X-ray crystal structure of complex (soaked) [1]: we determined the crystal structure of WT in complex with glucose (WT-Glc)

GH31_u1 protein from Lactococcus lactis subsp. cremoris MG1363 (LlGH31_u1), wild type (enzyme)
stoichiometry N [2]: 6 | stoichiometry N [3]: 6 | stoichiometry N [4]: 6

LlGH31_u1 (Lactococcus cremoris subsp. cremoris MG1363; Y99F)
Km [5]: 28 ± 0.8 mM

B1: LlGH31_u1 (Lactococcus cremoris subsp. cremoris MG1363) (protein)
chain: T1 sequence (A2RM80 1-739)
Km [6]: 20 ± 0.8 mM | kcat [6]: 31 s⁻¹ | kcat/Km [6]: 1500 M⁻¹ s⁻¹
